The values that follow come from article PMC8568338 (Cell reports, 2021).

This data set concerns the molecule itself. As to the kind of experiment: native gel or EMSA.

B1: Strep-tagged VP40[change] (VP40 truncated after residue 194) (domain or fragment)
chain: MRRVILPTAPPEYMEAIYPVRSNSTIARGGNSNTGFLTPESVNGDTPSNPLRPIADDTIDHASHTPGSVSSAFILEAMVNVISGPKVLMKQIPIWLPLGVADQKTYSFDSTTAAIMLASYTITHFGKATNPLVRVNRLGPGIPDHPLRLLRIGNQAFLQEFVLPPVQLPQYFTFDLTALKLITQPLPAATWTDD
B1: the “stoichiometry N” value came to 8.

A word on the stoichiometry N: it is the number of molecules, sites or subunits per partner or assembly.
